T1: His-tagged SIRT1 (bacterially expressed) (human, UniProt Q96EB6)
T1 sequence: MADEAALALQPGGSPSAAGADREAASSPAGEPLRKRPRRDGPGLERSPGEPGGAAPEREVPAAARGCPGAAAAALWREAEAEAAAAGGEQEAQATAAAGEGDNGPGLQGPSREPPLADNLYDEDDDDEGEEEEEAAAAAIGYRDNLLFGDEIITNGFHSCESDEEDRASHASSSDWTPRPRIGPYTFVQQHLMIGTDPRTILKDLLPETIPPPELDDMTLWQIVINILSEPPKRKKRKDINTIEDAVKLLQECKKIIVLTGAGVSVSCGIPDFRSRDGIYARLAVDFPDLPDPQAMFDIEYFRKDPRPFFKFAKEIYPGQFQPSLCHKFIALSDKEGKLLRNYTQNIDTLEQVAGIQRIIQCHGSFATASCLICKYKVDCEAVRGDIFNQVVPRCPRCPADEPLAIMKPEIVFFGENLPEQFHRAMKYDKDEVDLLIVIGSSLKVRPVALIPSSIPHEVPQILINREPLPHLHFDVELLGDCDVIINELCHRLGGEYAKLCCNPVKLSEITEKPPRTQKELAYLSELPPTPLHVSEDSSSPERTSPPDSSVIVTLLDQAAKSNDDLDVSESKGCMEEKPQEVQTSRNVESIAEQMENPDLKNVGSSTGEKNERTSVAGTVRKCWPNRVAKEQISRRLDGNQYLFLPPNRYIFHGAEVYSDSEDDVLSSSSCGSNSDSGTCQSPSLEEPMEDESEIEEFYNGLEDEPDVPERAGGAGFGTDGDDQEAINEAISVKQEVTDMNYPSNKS


Target: T1, His-tagged SIRT1 (bacterially expressed)
Assay: SEC

Row | Binder | binding result
1 | His-tagged TULP3 (bacterially expressed) (natural protein) MEASRCRLSPSGDSVFHEEMMKMRQAKLDYQRLLLEKRQRKKRLEPFMVQPNPEARLRRAKPRASDEQTPLVNCHTPHSNVILHGIDGPAAVLKPDEVHAPSVSSSVVEEDAENTVDTASKPGLQERLQKHDISESVNFDEETDGISQSACLERPNSASSQNSTDTGTSGSATAAQPADNLLGDIDDLEDFVYSPAPQGVTVRCRIIRDKRGMDRGLFPTYYMYLEKEENQKIFLLAARKRKKSKTANYLISIDPVDLSREGESYVGKLRSNLMGTKFTVYDRGICPMKGRGLVGAAHTRQELAAISYETNVLGFKGPRKMSVIIPGMTLNHKQIPYQPQNNHDSLLSRWQNRTMENLVELHNKAPVWNSDTQSYVLNFRGRVTQASVKNFQIVHKNDPDYIVMQFGRVADDVFTLDYNYPLCAVQAFGIGLSSFDSKLACE | binds
2 | His-tagged TULP3-4G (natural protein) MEASRCRLSPSGDSVFHEEMMKMRQAKLDYQRLLLEKRQRKKRLEPFMVQPNPEARLRRAKPRASDEQTPLVNCHTPHSNVILHGIDGPAAVLKPDEVHAPSVSSSVVEEDAENTVDTASKPGLQERLQKHDISESVNFDEETDGISQSACLERPNSASSQNSTDTGTSGSATAAQPADNLLGDIDDLEDFVGSGAPQGVTVRCRIIRDKRGMDRGLFPTYYMYLEKEENQKIFLLAARKRKKSKTANYLISIDPVDLSREGESYVGKLRSNLMGTKFTVYDRGICPMKGRGLVGAAHTRQELAAISYETNVLGFKGPRKMSVIIPGMTLNHGQIGYQPQNNHDSLLSRWQNRTMENLVELHNKAPVWNSDTQSYVLNFRGRVTQASVKNFQIVHKNDPDYIVMQFGRVADDVFTLDYNYPLCAVQAFGIGLSSFDSKLACE | binds

From paper doi:10.1101/2023.12.07.570558 (bioRxiv, 2023)
